Laboratory results from PMC10901376 (Science Advances, 2024).

Molecular target: the molecule itself
Assay: cryo-EM structure

B1: S. aureus TarL H300N (enzyme, UniProt Q2G1B8 1-562, looked up)
chain: MVKSKIYIDKIYWERVQLFVEGHSENLDLEDSNFVLRNLTETRTMKANDVKIDGNQFVCRFNVAILDNGYYLPEDKYLLVNEQELDYIAQLNPDVINDAYQNLKPEQEEEYNELETQNGKINFLLQTYLKEFRKGGISKKTVYTVTPEISSDVNEFVLDVVVTTPEVKSIYIVRKYKELRKYFRKQSFNTRQFIFKAIFNTTKFFHLKKGNTVLFTSDSRPTMSGNFEYIYNEMLRQNLDKKYDIHTVFKANITDRRGIIDKFRLPYLLGKADYIFVDDFHPLIYTVRFRRSQEVIQVWNAVGAFKTVGFSRTGKKGGPFIDSLNHRSYTKAYVSSETDIPFYAEAFGIKEKNVVPTGVPRTDVLFDEAYATQIKQEMEDELPIIKGKKVILFAPTFRGSGHGTAHYPFFKIDFERLARYCEKNNAVVLFKMHPFVKNRLNIADKHKQYFVDVSDFREVNDILFITDLLISDYSSLIYEYAVFKKPMIFYAFDLEDYITTRDFYEPYESFVPGKIVQSFDALMDALDNEDYEGEKVIPFLDKHFKYQDGRSSERLVRNLFGS
stoichiometry N: 4
